Source: paper PMC8915965
Read-outs that look alike come from different tables or passages of the source.

Assays:
[1] = expression in HeLaΔCD164 (SI Fig. S4); settings: glycan lost; control: WT CD164

B1: rat CD164 (rCD164): T102N rCD164 (protein)
parent chain: MSGASRGLFWAATCLAALCLSAAQSNSSASPNVTDPPTTTSKVVPTTLTTTKPPETCESFNSCVSCVNATLTNNITCVWLDCHEANKTYCSSELVSNCTQKTSTDSCSVIPTTPVPTNSTAKPTTRPSSPTPTPSVVTSAGATNTTVTPTSQPERKSTFDAASFIGGIVLVLGVQAVIFFLYKFCKSKERNYHTL
For B1, which “other: support of virus infection” value (glycan gained) is on record?
Its value is “increases”.

B2: CD164: N104Q hCD164PM (protein)
parent chain: MSRLSRSLLWAATCLGVLCVLSADKNTTQHPNVTTLAPISNVTSAPVTSLPLVTTPAPETCEGRNSCVSCFNVSVVNTTCFWIECKDESYCSHNSTVSDCQVGNTTDFCSVSTATPVPTANSTAKPTVQPSPSTTSKTVTTSGTTNNTVTPTSQPVRKSTFDAASFIGGIVLVLGVQAVIFFLYKFCKSKERNYHTL
Which “other: cell-cell membrane fusion” value (glycan lost) does the source give for B2 here?
The value was “abolishes”.

B3: CD164: N104Q (protein)
parent chain: MSRLSRSLLWAATCLGVLCVLSADKNTTQHPNVTTLAPISNVTSAPVTSLPLVTTPAPETCEGRNSCVSCFNVSVVNTTCFWIECKDESYCSHNSTVSDCQVGNTTDFCSVSTATPVPTANSTAKPTVQPSPSTTSKTVTTSGTTNNTVTPTSQPVRKSTFDAASFIGGIVLVLGVQAVIFFLYKFCKSKERNYHTL
For B3, which expression_or_secretion [1] is on record?
The expression_or_secretion was “no change”.

And the “other: support of virus infection” value (glycan lost)?
The value was “decreases”.

B4: CD164: N77Q (protein)
parent chain: MSRLSRSLLWAATCLGVLCVLSADKNTTQHPNVTTLAPISNVTSAPVTSLPLVTTPAPETCEGRNSCVSCFNVSVVNTTCFWIECKDESYCSHNSTVSDCQVGNTTDFCSVSTATPVPTANSTAKPTVQPSPSTTSKTVTTSGTTNNTVTPTSQPVRKSTFDAASFIGGIVLVLGVQAVIFFLYKFCKSKERNYHTL
What does the source list for B4?
expression_or_secretion [1]: no change; other: support of virus infection (glycan lost): no change

B5: CD164: N94Q (protein)
parent chain: MSRLSRSLLWAATCLGVLCVLSADKNTTQHPNVTTLAPISNVTSAPVTSLPLVTTPAPETCEGRNSCVSCFNVSVVNTTCFWIECKDESYCSHNSTVSDCQVGNTTDFCSVSTATPVPTANSTAKPTVQPSPSTTSKTVTTSGTTNNTVTPTSQPVRKSTFDAASFIGGIVLVLGVQAVIFFLYKFCKSKERNYHTL
Which results are given for B5?
expression_or_secretion [1]: no change; other: support of virus infection (glycan lost): no change

B6: CD164: N72Q (protein)
parent chain: MSRLSRSLLWAATCLGVLCVLSADKNTTQHPNVTTLAPISNVTSAPVTSLPLVTTPAPETCEGRNSCVSCFNVSVVNTTCFWIECKDESYCSHNSTVSDCQVGNTTDFCSVSTATPVPTANSTAKPTVQPSPSTTSKTVTTSGTTNNTVTPTSQPVRKSTFDAASFIGGIVLVLGVQAVIFFLYKFCKSKERNYHTL
For B6, which expression_or_secretion [1] is on record?
Its expression_or_secretion is “no change”.

And the “other: support of virus infection” value (glycan lost)?
Its value is “no change”.
